# “Also recorded” adds a separate entry of the source.
# B1: RASAL1: RASAL1 cDNA from normal thyroid, c-myc tagged, in lenti-virus vector, expressed in thyroid cancer cells; RasGAP tumor suppressor protein (protein, UniProt O95294 1-804, looked up)
# RasGAP-activating-like …: MAKSSSLNVRVVEGRALPAKDVSGSSDPYCLVKVDDEVVARTATVWRSLGPFWGEEYTVHLPLDFHQLAFYVLDEDTVGHDDIIGKISLSREAITADPRGIDSWINLSRVDPDAEVQGEICLSVQMLEDGQGRCLRCHVLQARDLAPRDISGTSDPFARVFWGSQSLETSTIKKTRFPHWDEVLELREMPGAPSPLRVELWDWDMVGKNDFLGMVEFSPKTLQQKPPKGWFRLLPFPRAEEDSGGNLGALRVKVRLIEDRVLPSQCYQPLMELLMESVQGPAEEDTASPLALLEELTLGDCRQDLATKLVKLFLGRGLAGRFLDYLTRREVARTMDPNTLFRSNSLASKSMEQFMKLVGMPYLHEVLKPVISRVFEEKKYMELDPCKMDLGRTRRISFKGALSEEQMRETSLGLLTGYLGPIVDAIVGSVGRCPPAMRLAFKQLHRRVEERFPQAEHQDVKYLAISGFLFLRFFAPAILTPKLFDLRDQHADPQTSRSLLLLAKAVQSIGNLGQQLGQGKELWMAPLHPFLLQCVSRVRDFLDRLVDVDGDEAGVPARALFPPSAIVREGYLLKRKEEPAGLATRFAFKKRYVWLSGETLSFSKSPEWQMCHSIPVSHIRAVERVDEGAFQLPHVMQVVTQDGTGALHTTYLQCKNVNELNQWLSALRKASAPNPNKLAACHPGAFRSARWTCCLQAERSAAGCSRTHSAVTLGDWSDPLDPDAEAQTVYRQLLLGRDQLRLKLLEDSNMDTTLEADTGACPEVLARQRAATARLLEVLADLDRAHEEFQQQERGKAALGPLGP
# modifications: c-myc tag
# notes: RASAL1 cDNA from normal thyroid, c-myc tagged, in lenti-virus vector, expressed in thyroid cancer cells; RasGAP tumor suppressor protein
# What was measured:
# [1] = tested on: thyroid cancer cell lines; assay: Demethylation (MSP) and re-expression (RT-PCR) of RASAL1 after 5-Aza-dC treatment; assay type: cell-based, human; settings: for demethylation of RASAL1 (MSP analysis): thyroid cancer cell lines, 5 μM 5-Aza-dC for 24 hours
# Experimental: FIG. 2. Hypermethylation of RASAL1 and its re-expression induced by demethylation in thyroid cancer cells. […] After cells were treated with 5 μM 5-Aza-dC for 24 hours, RNA and genomic DNA were extracted and used for reverse-transcription polymerase chain reaction (RT-PCR) and MSP analysis, respectively. C) RT-PCR analysis of RASAL1 expression in thyroid cancer cell lines treated with or without demethylating agent 5-Aza-dC. D) MSP analysis of RASAL1 in matched normal and cancerous thyroid tissues. Six matched sample pairs are presented that had different methylation patterns between normal and matched tumor tissues. E) RASAL1 methylation levels represented by the indicated allelic methylation percentages (x-axis) and their frequencies (y-axis) in different types of thyroid cancers. ATC=anaplastic thyroid cancer; FTC=follicular thyroid cancer; PTC=papillary thyroid cancer.
# DNA bisulfate treatment was performed as previously described (29). See Table 3 for MSP primer sequences. The relative level of methylation was normalized using the ratio obtained from the values of the gene of interest over the values of the internal reference gene (β-actin). The relative methylation level was calculated by the formula [M/(M+U)]×100%, in which M and U represent the density of the methylation and unmethylation band, respectively. Results represent the percentage of allelic methylation of the tumor.
# RNA extraction and semi-quantitative RT-PCR were performed as previously described (Liu et al., 13(4) CLIN. CANCER RES. 1341-49 (2007)). Normal human thyroid RNA samples (Stratagene, La Jolla, Calif.) were used as the control. The RT-PCR primers are presented Table 3.
# [2] = tested on: MAPK and PI3K signaling pathways (pERK, pAkt) in thyroid cancer cell lines; assay: Western blotting of ERK and Akt phosphorylation after RASAL1 expression; assay type: cell-based, human; settings: for pERK and pAkt levels: acute expression; for pERK and pAKT: stable expression
# [3] = tested on: thyroid cancer cell lines; assay: Colony formation in monolayer culture after transient RASAL1 transfection; assay type: cell-based, human; settings: transient reintroduction, compared with control vector; six of seven thyroid cancer cell lines tested
# C643 cells = assay: Anchorage independent colony formation, stable transfection; assay type: cell-based, human; settings: C643, stably transfected; n=3; control vector 92.67±18.15; P=0.03
# KAT18 cells = assay: as above; assay type: cell-based, human; settings: KAT18, stably transfected; n=3; control vector 81.67±16.29; P=0.05
# WRO cells = assay: Colony formation in soft agar, stable transfection; assay type: cell-based, human
# Description: FIG. 5. Examination of the effects of reintroduction of RASAL1 on RAS signaling and growth of thyroid cancer cells. A) A representative result of Western blotting analysis of RASAL1 expression and phosphorylation of ERK and Akt as well as other related proteins as indicated in various thyroid cancer cell lines that harbor different genetic alterations. B) A representative result of colony formation of thyroid cancer cells in monolayer culture after transfection of plasmids with or without insertion of RASAL1 cDNA followed by drug selection for 2 weeks. Cell colonies were stained with crystal violet. Scale bar=1 cm. C) Western blotting analysis of RASAL1 expression and phosphorylation of ERK and Akt and related proteins as indicated in three selected thyroid cancer cell lines stably transfected with RASAL1. D) Bar graph presentation of the colony numbers (mean±standard deviation) from three experiments for cells stably transfected with empty vectors or RASAL1 as in (C). Only cell colonies containing more than 50 cells were included.
# (§1) FIG. 6. […] Scale bar=100 μm. […] Scale bar=100 μm.
# Colony formation assays were performed as described previously (Liu et al., 92(6) J. CLIN. ENDOCRINOL. METAB. 2264-71 (2007)). […] Surviving colonies were counted after staining with crystal violet. […] After 3-4 weeks of culture, colonies were photographed and colony number was counted under a microscope.
# K1 cells = assay: Colony formation with doxycycline-inducible RASAL1 expression; assay type: cell-based, human; settings: Dox-induced expression, control (no Dox) 86.00±8.54, P=0.006
# Experimental: as §1
# Colony formation assays were performed as described previously (Liu et al., 92(6) J. CLIN. ENDOCRINOL. METAB. 2264-71 (2007)). For colony formation in monolayer culture, transfected cells (1×10^5 cells/well) were inoculated into a […], and 24-h later cells were selected with blasticidin (2 μg/mL) for 2 weeks. Surviving colonies were counted after staining with crystal violet. For colony formation in soft agar, cells (5×10^3 cells/well) were plated in RPMI 1640 containing 10% FBS and 0.33% agar in 12-well plates. After 3-4 weeks of culture, colonies were photographed and colony number was counted under a microscope.
# RASAL1 cDNA, which was amplified from normal thyroid (Stratagene, La Jolla, Calif.) and tagged with c-myc epitope, was inserted into a modified lenti-virus vector that was derived from plenti6/V5-DEST (Invitrogen, Grand Island, N.Y.). The virus packaging and cell infection were performed as described previously (Liu et al., 18 CANCER RES. 7311-19 (2009)). To construct the plasmid for doxycycline-inducible expression of RASAL1, the CMV promoter in the modified plenti6/V5-DEST plasmid was replaced with the Xho I-EcoR V fragment of plasmid pUHG10-3 (Gossen et al., 89(12) PROC. NATL. ACAD. SCI. USA 5547-51 (1992)), which contained hCMV minimal promoter with heptamerized upstream tet-operators. […]
# [4] = tested on: RAS (RAS-GTP) in WRO cells; assay: RAS pull-down (RAS activation) assay with ATP stimulation; assay type: cell-based, human; settings: WRO cells stably transfected; ATP treatment
# Experimental: as §1
# The protocol for cell treatment was as described previously (Walker et al., 23(8) EMBO J. 1749-60 (2004)). Briefly, cells were serum starved for 2 h in serum-free medium at 24 h post-transfection of wild-type H-RAS. Cells were then treated with 50 μM ATP for 1 min. A RAS activation assay kit (Cell Biolabs, San Diego, Calif.) was used to assess RAS activity. After treatment, cells were washed twice with ice-cold PBS and then lysed in 1 mL of assay lysis buffer. After centrifugation at 14,000×g for 10 min at 4° C., cell lysates were incubated at 4° C. for 1 h with 40 μL of the RAF1 RAS-binding domain-agarose beads. The beads were pelleted and washed three times with assay lysis buffer, and then resuspended in 2× reducing SDS-PAGE sample buffer. The quantities of activated RAS (RAS-GTP) were analyzed by Western blotting using anti-RAS monoclonal antibody.
# [5] = tested on: K1 cell-derived xenograft tumors; assay: Xenograft tumor formation in nude mice
# Description: The procedures for the construction of doxycycline (Dox)-inducible expression device for RASAL1 and transfection of K1 cells are as described in the Materials and Methods section below. […] Each time point represents the average±standard deviation of the values obtained from four mice in each group. Two-tailed paired Student t test was used to compare tumor sizes at week 5. H) Photographs of the tumors that were surgically removed from mice in each group after they were killed at the end of 5 weeks from the cell inoculation. I) Weight of individual tumors surgically removed from the animals in each group corresponding to (H). The average weight of the tumors from each group is indicated with a short horizontal bar.
# The animals' care was in accord with the guidelines of Johns Hopkins Medical Institutions. K1 cells stably transfected with doxcycycline-inducible wild-type RASAL1 or RASAL1 mutants constructed as described above were injected (1×10^7 cells/mouse) subcutaneously into flanks of female nude mice at the age of 4 weeks (Harlan Sprague Dawley, Indianapolis, Ind.). Mice were fed vehicle or 0.2 mg/mL doxycycline, which was stored in a 0.5% sucrose solution in light-proof bottles, beginning when the tumor grew to a size of 2 mm at 1.5 weeks after the inoculation of cells. Tumor size was measured, and volume was calculated using the formula (length×width2)/2. After 5 weeks, mice were sacrificed, and tumors were surgically removed, photographed, and weighed.
molecule,measurement,setting,value
"Nc1ncn([C@H]2C[C@H](O)[C@@H](CO)O2)c(=O)n1 [5-Aza, 5-aza-2-deoxycytidine]",RASAL1 expression (RT-PCR),"[1]; in six of the eight thyroid cancer cell lines tested, 5 μM for 24 hours",restored its expression
same,demethylation of RASAL1 (MSP analysis),[1],induced demethylation of RASAL1
same,demethylation of RASAL1 (MSP analysis),[1]; listed as 5-Aza-dC,Partial demethylation
B1,pERK and pAkt levels,[2]; BCPAP cells (BRAF mutation),only reduced pAKT but not pERK
same,pERK and pAkt levels,[2]; C643 cells (RAS mutation),No effect was observed; also recorded: no effect on pERK and pAKT
same,pERK and pAkt levels,[2]; FTC-133 cells (PTEN mutation),reduced pERK but not pAKT
same,pERK and pAkt levels,[2]; Hth7 cells (RAS mutation),No effect was observed
same,pERK and pAkt levels,"[2]; KAT18 cells (wild-type RAS, BRAF, PIK3CA, PTEN)",decreased both pERK and pAkt levels
same,pERK and pAKT,[2]; KAT18 cells,inhibition of pERK and pAKT was observed
same,pERK and pAkt levels,[2]; SW1736 cells (BRAF mutation),No effect was observed
same,pERK and pAkt levels,[2]; TPC1 cells (RET-PTC1 rearrangement),no effect
same,pERK and pAkt levels,"[2]; WRO cells (wild-type RAS, BRAF, PIK3CA, PTEN)",decreased both pERK and pAkt levels
same,pERK and pAKT,[2]; WRO cells,inhibition of pERK and pAKT was observed
same,cell colony growth in monolayer culture,[3],dramatically inhibited cell colony growth
same,colony number,C643 cells,55.33±9.71
same,colony number,KAT18 cells,54.00±6.56
same,colony number,"WRO cells; WRO cell pools, wild-type vs mutants experiment, vector 52.00±9.54, P=0.009",24.00±7.81
same,colony number,"WRO cells; WRO, stably transfected, n=3, control vector 48.00±13.45, P=0.03",21.67±6.35
same,colony number,K1 cells,40.33±6.03
same,effect on activation of RAS and increase in pAKT and pERK stimulated by ATP,[4],suppressed the activation of RAS and the increase in pAKT and pERK
same,effect on tumor growth,[5]; doxycycline-induced expression in K1 xenografts,statistically significant inhibitory effect
same,tumor weight,"[5]; doxycycline-induced expression, after 5 weeks, without induction 1.01±0.54, P=0.047",0.66 ± 0.53 g
same,tumor volume,"[5]; doxycycline-induced expression, week 5, without induction 0.94±0.52, P=0.02",0.49±0.4 cm3

# Source: patent publication US10047402B2, “RASAL1 is a major tumor suppressor gene in thyroid cancer” (THE JOHNS HOPKINS UNIVERSITY, priority 2013, dated 2018)
